Test results from patent US20240376170A1 (BRIGHT PEAK THERAPEUTICS, published 2024).
Bridges are numbered along the chain shown (N, C = ends). Primed or numbered codes have the meaning given here. [ ]: non-standard residue; d: D form. 8x polyethylene glycol‑amino = O-(8x polyethylene glycol-amino)-tyrosine, SITE 45; 9x polyethylene glycol‑azido = O-(9x polyethylene glycol-azido)-tyrosine, SITE 42; Ygp = O-(8x polyethylene glycol-amino)-tyrosine (Tyr, amino-capped PEG8); Yn3 = O-(9x polyethylene glycol-azido)-tyrosine (Tyr, azide-capped PEG9); Ygp″ = O-(8x polyethylene glycol-amino)-tyrosine; Yn3″ = O-(9x polyethylene glycol-azido)-tyrosine; PEG16′ = 16x polyethylene glycol; PEG24′ = 24x polyethylene glycol; Ygp(6) = Tyr, amino-capped PEG8; Yn3(6) = Tyr, azide-capped PEG9; PEG4′ = 4x polyethylene glycol; PEG9′ = 9x polyethylene glycol; hSer = N[C@@H](CCO)C(=O)O; Nle = CCCC[C@H](N)C(=O)O

T1: IL-2Rβγ on HEK-Blue IL-2Rβγ reporter cells (InvivoGen) (UniProt P14784 27-551; P31785 23-369, limits assumed)
T1 sequence (looked up) 1: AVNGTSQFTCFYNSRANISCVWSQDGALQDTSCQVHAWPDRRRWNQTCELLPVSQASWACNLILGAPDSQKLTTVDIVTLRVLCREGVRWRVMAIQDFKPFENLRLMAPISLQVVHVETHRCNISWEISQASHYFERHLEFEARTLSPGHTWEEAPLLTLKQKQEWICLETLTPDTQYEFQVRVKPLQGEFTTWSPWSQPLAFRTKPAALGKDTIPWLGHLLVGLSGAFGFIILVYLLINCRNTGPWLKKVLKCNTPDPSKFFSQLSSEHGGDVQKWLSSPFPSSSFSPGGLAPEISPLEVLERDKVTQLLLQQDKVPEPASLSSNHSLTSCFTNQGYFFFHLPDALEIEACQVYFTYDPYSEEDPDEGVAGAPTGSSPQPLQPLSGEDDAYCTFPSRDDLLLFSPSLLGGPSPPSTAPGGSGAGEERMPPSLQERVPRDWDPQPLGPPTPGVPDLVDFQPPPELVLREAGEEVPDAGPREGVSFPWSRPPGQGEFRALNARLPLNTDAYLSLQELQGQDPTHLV
T1 sequence (looked up) 2: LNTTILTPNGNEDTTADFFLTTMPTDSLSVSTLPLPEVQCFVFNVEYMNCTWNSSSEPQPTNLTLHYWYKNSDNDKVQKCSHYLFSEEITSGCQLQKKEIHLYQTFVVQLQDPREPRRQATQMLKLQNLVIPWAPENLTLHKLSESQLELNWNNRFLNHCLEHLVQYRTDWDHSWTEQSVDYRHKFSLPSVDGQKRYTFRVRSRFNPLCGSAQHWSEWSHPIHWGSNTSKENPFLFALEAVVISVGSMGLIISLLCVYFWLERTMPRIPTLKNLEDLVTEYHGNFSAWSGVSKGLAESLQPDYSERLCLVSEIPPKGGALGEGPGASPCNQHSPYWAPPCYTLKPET

T2: IL-2 receptor βγ complex (human, UniProt P14784 27-551; P31785 23-369)
T2 sequence (looked up) 1: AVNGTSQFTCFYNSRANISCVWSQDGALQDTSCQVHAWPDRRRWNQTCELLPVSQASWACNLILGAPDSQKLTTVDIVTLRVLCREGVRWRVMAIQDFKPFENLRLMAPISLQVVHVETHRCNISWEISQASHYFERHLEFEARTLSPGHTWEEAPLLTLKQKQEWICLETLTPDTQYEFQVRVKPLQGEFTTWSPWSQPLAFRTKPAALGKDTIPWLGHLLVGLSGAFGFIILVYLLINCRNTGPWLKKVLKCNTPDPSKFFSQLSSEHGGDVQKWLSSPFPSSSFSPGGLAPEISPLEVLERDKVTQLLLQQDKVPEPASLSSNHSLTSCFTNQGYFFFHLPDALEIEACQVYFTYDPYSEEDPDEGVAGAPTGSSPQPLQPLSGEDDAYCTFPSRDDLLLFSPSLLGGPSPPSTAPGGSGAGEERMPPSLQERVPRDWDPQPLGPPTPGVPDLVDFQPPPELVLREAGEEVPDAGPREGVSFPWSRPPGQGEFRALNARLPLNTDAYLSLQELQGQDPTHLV
T2 sequence (looked up) 2: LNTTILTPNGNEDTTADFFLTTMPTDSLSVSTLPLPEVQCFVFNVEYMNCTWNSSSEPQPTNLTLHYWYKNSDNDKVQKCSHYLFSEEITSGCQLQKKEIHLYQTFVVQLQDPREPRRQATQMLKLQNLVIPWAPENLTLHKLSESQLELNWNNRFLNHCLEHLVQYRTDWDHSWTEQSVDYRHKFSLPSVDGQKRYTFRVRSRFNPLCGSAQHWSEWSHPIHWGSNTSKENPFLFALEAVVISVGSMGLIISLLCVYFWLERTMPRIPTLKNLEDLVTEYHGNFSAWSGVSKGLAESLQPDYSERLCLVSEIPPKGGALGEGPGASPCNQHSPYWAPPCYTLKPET

B1: CMP-330, matriptase cleaved (ligand)
chain: APTSSSTKKTQLQLEHLLLDLQEILNGINNYKNPKLTR[Nle]L[hSer]Y(9x polyethylene glycol‑azido)KFY(8x polyethylene glycol‑amino)[Nle]PKKATELKHLQCLEEELKPLEEVL[hSer]LAQSKNFHLRPRDLISNINVIVLELKGSETTF[hSer]CEYADETATIVEFLNRWITFSQSIISTLT
modifications: not fully specified; also: before the cut Lys9 and Glu23 side chains are bridged by a peptide linker, what remains after the cut not given here
B2: CMP-321, matriptase cleaved (ligand)
chain: SGRVQPLVDAPTSSSTKKTQLQLEHLLLDLQEILNGINNYKNPKLTR[Nle]L[hSer][Yn3(6)]KF[Ygp(6)][Nle]PKKATELKHLQCLEEELKPLEEVL[hSer]LAQSKNFHLRPRDLISNINVIVLELKGSETTF[hSer]CEYADETATIVEFLNRWITFSQSIISTLT
modifications: not fully specified (bridges)
B3: CMP-300, MMP2 cleaved (ligand)
chain: APTSSSTKKTQLQLEHLLLDLQEILNGINNYKNPKLTR[Nle]L[hSer][Yn3″]KF[Ygp″][Nle]PKKATELKHLQCLEEELKPLEEVL[hSer]LAQSKNFHLRPRDLISNINVIVLELKGSETTF[hSer]CEYADETATIVEFLNRWITFSQSIISTLT
modifications: ends and bridges not checked; also: MMP2 cleaved, ring opened, cut site and remnants not given here
B4: CMP-330, uPa cleaved (ligand)
chain: APTSSSTKKTQLQLEHLLLDLQEILNGINNYKNPKLTR[Nle]L[hSer]Y(9x polyethylene glycol‑azido)KFY(8x polyethylene glycol‑amino)[Nle]PKKATELKHLQCLEEELKPLEEVL[hSer]LAQSKNFHLRPRDLISNINVIVLELKGSETTF[hSer]CEYADETATIVEFLNRWITFSQSIISTLT
modifications: not fully specified; also: before the cut Lys9 and Glu23 side chains are bridged by a peptide linker, what remains after the cut not given here
B5: CMP-329, uPa cleaved (ligand)
chain: APTSSSTKKTQLQLEHLLLDLQEILNGINNYKNPKLTR[Nle]L[hSer][Yn3″]KF[Ygp″][Nle]PKKATELKHLQCLEEELKPLEEVL[hSer]LAQSKNFHLRPRDLISNINVIVLELKGSETTF[hSer]CEYADETATIVEFLNRWITFSQSIISTLT
modifications: ends and bridges not checked; also: uPa-cleaved, cut in the RQRRSVVGG bridge between Lys9 and Glu23, remaining fragments not given here
B6: CMP-329, matriptase cleaved (ligand)
chain: APTSSSTKKTQLQLEHLLLDLQEILNGINNYKNPKLTR[Nle]L[hSer][Yn3″]KF[Ygp″][Nle]PKKATELKHLQCLEEELKPLEEVL[hSer]LAQSKNFHLRPRDLISNINVIVLELKGSETTF[hSer]CEYADETATIVEFLNRWITFSQSIISTLT
modifications: ends and bridges not checked; also: after matriptase cleavage, remnants of the Lys9–Glu23 peptide linker not given here
B7: CMP-300 (ligand)
chain: GPLGLAG[PEG4′]APTSSSTKKTQLQLEHLLLDLQEILNGINNYKNPKLTR[Nle]L[hSer][Yn3″]KF[Ygp″][Nle]PKKATELKHLQCLEEELKPLEEVL[hSer]LAQSKNFHLRPRDLISNINVIVLELKGSETTF[hSer]CEYADETATIVEFLNRWITFSQSIISTLT
modifications: lactam N-31; ends not checked
B8: CMP-154 (ligand)
chain: PLGLAGAPTSSSTKKTQLQLEHLLLDLQ[Nle]ILNGIENYKNPKLTR[Nle]L[hSer][Yn3″]KF[Ygp″][Nle]PKKATELKHLQCLEEELKPLEEVL[hSer]LAQSKNFHLRPRDLISNINVIVLELKGSETTF[hSer]CEYADETATIVEFLNRWITFSQSIISTLT
modifications: linker N-35 via PEG9′
B9: CMP-154, MMP2 cleaved molecule (ligand)
chain: PLGLAGAPTSSSTKKTQLQLEHLLLDLQ[Nle]ILNGIENYKNPKLTR[Nle]L[hSer][Yn3″]KF[Ygp″][Nle]PKKATELKHLQCLEEELKPLEEVL[hSer]LAQSKNFHLRPRDLISNINVIVLELKGSETTF[hSer]CEYADETATIVEFLNRWITFSQSIISTLT
modifications: not fully specified (bridges); also: MMP2 cleaved, site not given here
B10: CMP-139, MMP2 cleaved molecule (ligand)
chain: APTSSSTKKTQLQLEHLLLDLQ[Nle]ILNGIENYKNPKLTR[Nle]L[hSer][Yn3]KF[Ygp][Nle]PKKATELKHLQCLEEELKPLEEVL[hSer]LAQSKNFHLRPRDLISNINVIVLELKGSETTF[hSer]CEYADETATIVEFLNRWITFSQSIISTLT
modifications: ends and bridges not checked; also: cleaved by MMP2, cleavage product not defined, N-terminal PEG16 link and Glu29 side-chain attachment of the cleavable peptide not defined
B11: CMP-139 (ligand)
chain: [PEG16′]SGGPGPAGMKGLPGS[PEG16′]APTSSSTKKTQLQLEHLLLDLQ[Nle]ILNGIENYKNPKLTR[Nle]L[hSer][Yn3]KF[Ygp][Nle]PKKATELKHLQCLEEELKPLEEVL[hSer]LAQSKNFHLRPRDLISNINVIVLELKGSETTF[hSer]CEYADETATIVEFLNRWITFSQSIISTLT
modifications: bridge (positions not given here); not fully specified (bridges); ends not checked
B12: CMP-137, MMP2 cleaved molecule (ligand)
chain: APTSSSTKKTQLQLEHLLLDLQ[Nle]ILNGIENYKNPKLTR[Nle]L[hSer][Yn3]KF[Ygp][Nle]PKKATELKHLQCLEEELKPLEEVL[hSer]LAQSKNFHLRPRDLISNINVIVLELKGSETTF[hSer]CEYADETATIVEFLNRWITFSQSIISTLT
modifications: ends and bridges not checked; also: cleaved by MMP2, cleavage product not defined, N-terminal PEG24 link and Glu29 side-chain attachment of the cleavable peptide not defined
B13: CMP-137 (ligand)
chain: [PEG24′]PLGLAG[PEG24′]APTSSSTKKTQLQLEHLLLDLQ[Nle]ILNGIENYKNPKLTR[Nle]L[hSer][Yn3]KF[Ygp][Nle]PKKATELKHLQCLEEELKPLEEVL[hSer]LAQSKNFHLRPRDLISNINVIVLELKGSETTF[hSer]CEYADETATIVEFLNRWITFSQSIISTLT
modifications: bridge (positions not given here); not fully specified (bridges); ends not checked
B14: CMP-152, MMP2 cleaved molecule (ligand)
chain: PLGLAGAPTSSSTKKTQLQLEHLLLDLQ[Nle]ILNGINNYKNPKLTR[Nle]L[hSer][Yn3″]KF[Ygp″][Nle]PKKATELKHLQCLEEELKPLEEVL[hSer]LAQSKNFHLRPRDLISNINVIVLELKGSETTF[hSer]CEYADETATIVEFLNRWITFSQSIISTLT
modifications: not fully specified (bridges); also: MMP2 cleaved, site not given here
B15: CMP-152 (ligand)
chain: PLGLAGAPTSSSTKKTQLQLEHLLLDLQ[Nle]ILNGINNYKNPKLTR[Nle]L[hSer][Yn3″]KF[Ygp″][Nle]PKKATELKHLQCLEEELKPLEEVL[hSer]LAQSKNFHLRPRDLISNINVIVLELKGSETTF[hSer]CEYADETATIVEFLNRWITFSQSIISTLT
modifications: linker N-38 via PEG9‑glutaryl

Target: T1, IL-2Rβγ on HEK-Blue IL-2Rβγ reporter …
Test: cell-based or functional assay

Compared with B1, B2 is 2-fold higher in “Average EC50, HEK-Blue IL-2R (CD122+, CD132+) Reporter Assay, Matriptase cleaved molecule” value: 2.15 nM for the first, 4.22 nM for the second.

B6 was tested, and the “Average EC50, HEK-Blue IL-2R (CD122+, CD132+) Reporter Assay, Matriptase cleaved molecule” value was 1.47 nM.

In the case of B3, the “Average EC50, HEK-Blue IL-2R (CD122+, CD132+) Reporter Assay, MMP2 cleaved molecule” value is reported as 0.0094 nM.

B4 and B5 are within 1.5-fold of each other in “Average EC50, HEK-Blue IL-2R (CD122+, CD132+) Reporter Assay, uPa cleaved molecule” value: 1.73 nM for the first, 1.41 nM for the second.

For B7, the “Average EC50, HEK-Blue IL-2R (CD122+, CD132+) Reporter Assay, intact molecule” value was 0.711 nM.

Target: T2, IL-2 receptor βγ complex
Test: cell-based or functional assay

Going from B8 to B9, the “Average EC50, pSTAT5 Assay (T cells)” value falls from 24.7 nM to 4.2 nM.

Going from B10 to B11, the “Average EC50, pSTAT5 Assay (T cells)” value rises from 3.61 nM to 21.3 nM.

First: B12
Second: B13
The “Average EC50, pSTAT5 Assay (T cells)” value of the first is lower: 4.09 nM for the first, 27.1 nM for the second.

Compared with B14, B15 is higher in “Average EC50, pSTAT5 Assay (T cells)” value: 2.95 nM for the first, 16.1 nM for the second.
